Experimental findings from patent US20250084152A1 (DUKE UNIVERSITY, published 2025) are described below.

The target of assay [1] is T1, B/MY04 N135R EHA2 (Influenza B virus B/Malaysia/2506/2004, UniProt P03461 374-538).
T1 chain: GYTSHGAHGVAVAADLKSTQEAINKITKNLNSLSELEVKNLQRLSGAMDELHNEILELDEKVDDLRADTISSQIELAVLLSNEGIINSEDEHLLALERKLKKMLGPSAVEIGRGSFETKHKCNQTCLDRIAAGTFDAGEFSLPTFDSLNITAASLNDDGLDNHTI
The assay is described as follows: ELISA, rIgG (FIG. 20A). (ELISA stands for enzyme-linked immunosorbent assay.)

Assay [2] has as its target T1, B/MY04 N135R EHA2. The assay is described as follows: ELISA, rIgG (FIG. 13).

B1: S1V2-72 (antibody, V domains shown)
VH: QVQLVQSGAELKKPGASVKVSCKASGYTFTGNYIHWMRQVPGQGLEWMGWINPRTGDTHHAQKFQGRVDMTRDTSINTAYLELTRLESDDTALYYCARCVFATSQFDPWGQGTLVTVSS
VL: QSALTQPASVSGSPGQSITISCTGTNSDIGSHNLVSWYQQHPGKAPKVMIYDDSKRPSGVSNRFSGSKSGSTASLTISGLQSEDEADYYCCSYAGSSNWVFGGGTKLTLL
On to B1, for which the binding result in the assay with B/MY04 N135R EHA2 [1] is “no binding”.

B2: 351-52 (antibody, V domains shown)
VH: QVQLAQSGAEVRKPGASVKVSCKASGYTFTDYYIHWVRQAPGQGLEWMGWINPDSGRTNYAQRFQGRVSMTSDTSISTAYMDLSRLRSDDTAVYFCAREGAHNYQHFDHWGQGTLVTVSA
VL: EIVLTQSPDTLSLSPGESATLFCRASQSVRSSYLAWYQQTPGQAPRLLIYGASSRATGIPDRFSGSGSGTDFTLTISRLEPEDFAVYYCQQFGRSSWTFGQGTKVEIK
With B2, the binding result in the assay with B/MY04 N135R EHA2 [2] is on record as “no binding”.

B3: M94 (antibody, V domains shown)
VH: QVQLVESGAEVKRPGASVKVACKASEYRFAASYIHWVRQAPGQGLEWMGWINLNSGDTKSSQKFQGWVTLTRDTSINTVYMEMTNLKFDDTAIYYCAKIILGGGGLDVWGQGTTVTVSS
VL: QSVLTQPRSVSGSLGQSVTISCSGTSTDVGSYEFVSWYQHHPGKAPKLIIYDVSKRPSGVPDRFSGSKSGNTASLAVSGLQSDDEADYYCSSYADTSNTWVFGGGTKLTVL
Take B3: in the assay with B/MY04 N135R EHA2 [2], the binding result is on record as “no binding”.

B4: C1_ID26079-156194 (antibody, V domains shown)
VH: QVQLVQSGAEVKKPGASVKVSCKASGYTFTGNYMHWVRQAPGQGLEWMGWINPDSGGTNYAQRFQGRVTMTRDTSISTAYMELSRLTSDDTAMYYCARVMLRSSGFDSWGQGTLVTVSS
VL: QSALIQPASVSGSPGQSITISCTGTSSDVGTYNLVSWYQQHPGKVPKLMIYEASERPSGVSNRFSGSKSGNTASLTISGLQAEDEADYYCCSYAGNSAWVFGGGTKLTVL
As to B4, the binding result with B/MY04 N135R EHA2 [2] is recorded as “no binding”.
